The source of these data is patent US20250376511A1 (Sanofi, published 2025).

Assay [1] concerns the target T1, Human active C1s (Complement Technology) (human, UniProt P09871 16-688).
T1 sequence: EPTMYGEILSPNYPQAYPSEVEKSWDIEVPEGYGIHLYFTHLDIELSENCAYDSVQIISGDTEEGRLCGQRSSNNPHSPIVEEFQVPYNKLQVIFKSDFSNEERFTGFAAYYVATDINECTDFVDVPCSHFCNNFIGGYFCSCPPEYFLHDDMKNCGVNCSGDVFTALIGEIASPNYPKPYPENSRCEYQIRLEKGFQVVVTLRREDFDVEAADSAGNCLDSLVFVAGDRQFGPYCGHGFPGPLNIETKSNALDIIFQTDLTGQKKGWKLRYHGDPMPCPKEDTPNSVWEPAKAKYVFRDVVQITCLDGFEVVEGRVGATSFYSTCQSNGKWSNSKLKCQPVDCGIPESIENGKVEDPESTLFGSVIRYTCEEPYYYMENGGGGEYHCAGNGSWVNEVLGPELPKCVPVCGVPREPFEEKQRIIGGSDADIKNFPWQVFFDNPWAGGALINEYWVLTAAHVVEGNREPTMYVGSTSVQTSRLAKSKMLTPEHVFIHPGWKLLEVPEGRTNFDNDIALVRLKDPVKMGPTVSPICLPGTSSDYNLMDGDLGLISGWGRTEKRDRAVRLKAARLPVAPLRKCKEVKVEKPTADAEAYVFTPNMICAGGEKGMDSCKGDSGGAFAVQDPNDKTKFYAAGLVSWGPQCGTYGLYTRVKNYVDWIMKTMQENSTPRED
Nature of the assay: cell-based or functional assay.

The target in assay [2] is T1, Human active C1s (Complement Technology). Nature of the assay: SPR Biacore T200, antibody captured on anti-human Fc, human active C1s as analyte, 1:1 fit. The procedure:
(§1) TfR and C1s binding using surface plasmon resonance (SPR): Analysis of antibody binding to TfR was performed on a Biacore™ T200 instrument using anti-His capture at 25° C. Anti-His (Qiagen) was buffer exchanged into PBS pH 7.2, diluted to 25 μg/mL in 10 mM sodium acetate pH 4.0 and directly immobilized to a series S CM5 chip to a surface density of ˜10,000 RU using the amine coupling kit provided by Cytiva. His-tagged recombinant human TfR (produced in-house) was diluted in HBS-EP+ pH 7.4 running buffer (10 mM HEPES pH 7.4, 150 mM NaCl, 3 mM EDTA, 0.05% surfactant P20) and injected for 5 sec at 20 μL/min flowrate to obtain capture level of 20 RU. Antibodies were serially diluted 2-fold from 90 to 5.625 nM in running buffer and injected over the captured TfR for 3 min followed by 9 min dissociation in buffer at 30 μL/min. Each cycle was regenerated with 10 mM glycine pH 1.5. To measure C1s binding, anti-human Fc (Jackson) was directly immobilized to a CM5 chip using amine chemistry. Antibodies were diluted to 2.5 μg/mL in HBS-EP+ pH 7.4 and captured to the chip for 15 sec at 20 μL/min flowrate. Human active C1s (Complement Technology) was serially diluted 2-fold from 20 to 0.625 nM in running buffer and injected over the captured antibodies for 180 sec at 50 μL/min followed by 9 min dissociation in buffer. The bound complex was removed from the chip each cycle with 40 mM HCl and 0.85% phosphoric acid. Sensorgrams were processed using the Biacore™ Insight software and fit to a 1:1 binding model to obtain kinetic constants.
(§2) The six bispecific anti-aC1s/anti-TfR antibodies were first tested for their affinity for both TfR and aC1s via surface plasmon resonance (SPR) (Table 2).

The target in assay [3] is T2, His-tagged recombinant human TfR (produced in-house) (human, UniProt P02786 89-760).
T2 construct: also called hTfR; transferrin receptor 1
Nature of the assay: hTfR affinity, SPR (method not restated for Table 1; same value as Table 2). The procedure: as §1, §2

Assay [4] addresses T1, Human active C1s (Complement Technology). Nature of the assay: cell-based or functional assay. This is another data set of the same source.
Assay [5] deals with T2, His-tagged recombinant human TfR …. Nature of the assay: SPR Biacore T200, His-tagged human TfR captured on anti-His, antibody as analyte, 25 C, 1:1 fit. The procedure: as §1, §2
For assay [6] the target is unchanged. Nature of the assay: SPR Biacore T200 (Table 2). The procedure:
as §1, with “The bound complex was removed from the chip each cycle with 40 mM HCl and 0.85% phosphoric acid. Sensorgrams were processed using the Biacore™ Insight software and fit to a 1:1 binding model to obtain kinetic constants.” left out

T2 sequence (P02786 89-760 limits assumed): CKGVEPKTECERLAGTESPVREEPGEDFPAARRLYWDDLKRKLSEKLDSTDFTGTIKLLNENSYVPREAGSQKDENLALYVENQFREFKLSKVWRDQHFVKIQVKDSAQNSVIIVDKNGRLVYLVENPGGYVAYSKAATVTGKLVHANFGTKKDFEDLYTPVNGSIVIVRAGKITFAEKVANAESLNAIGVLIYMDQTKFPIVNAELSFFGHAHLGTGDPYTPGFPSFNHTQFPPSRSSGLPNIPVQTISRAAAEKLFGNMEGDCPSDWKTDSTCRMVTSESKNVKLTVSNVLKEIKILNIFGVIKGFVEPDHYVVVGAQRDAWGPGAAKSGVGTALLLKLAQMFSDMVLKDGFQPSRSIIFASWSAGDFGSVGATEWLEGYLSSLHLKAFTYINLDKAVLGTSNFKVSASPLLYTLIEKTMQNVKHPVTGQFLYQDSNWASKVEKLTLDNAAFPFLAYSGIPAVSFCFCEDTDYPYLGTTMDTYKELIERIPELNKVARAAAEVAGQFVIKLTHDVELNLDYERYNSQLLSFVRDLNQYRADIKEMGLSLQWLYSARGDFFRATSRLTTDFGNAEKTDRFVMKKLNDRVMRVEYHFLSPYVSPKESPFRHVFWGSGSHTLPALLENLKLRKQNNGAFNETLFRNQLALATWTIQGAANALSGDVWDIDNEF

B1: aC1s_088 × 531v25 IgG4-PE/dK (bispecific antibody, V domains shown)
VH 1: QVQLVQSGAEVKKPGASVKLSCTASGFNIKDDYIHWVKEAPGQGLEWIGRIDPADGHTKYAPKFQVKVTITADTSTSTAYLELSSLRSEDTAVYYCARYGYGREVFDYWGQGTTVTVSS
VL 1: DIVLTQSPDSLAVSLGERATISCKASQSVDYDGDSYMNWYQKKPGQPPKILIYDASNLESGIPARFSGSGSGTDFTLTISSLEPEDFAIYYCQQSNEDPWTFGGGTKVEIK
VH 2: QVQLVQSGAEVKKPGASVKVSCKASGYTFTRYYLNWVRKAPGQGLEWIGMIDPSVSETHYAQKFQGRATLTVDKSTSTAYMELSSLRSEDTAVYYCSQIRLPYYYAMDSWGQGTTVTVSS
VL 2: DIQMTQSPSSLSASVGDRVTITCRASQDISSFLNWYQEKPGKAPKLLIYYTSRLQSGVPSRFSGSGSGTDYTLTISSLQPEDFATYYCQQGNTLPRTFGGGTKVEIK
notes: IgG4-PE Fc, dK, with charge pairing mutations; The starred variable domains are used, as for m5; also called aC1s_088-CM × 531v25 IgG4
B1: in assay [1], the “IC50, C3d deposition on neurons in iPSC tricultures with serum” value (from here on “IC50, C3d deposition on neurons”) came out at 29.3 µg/mL. In addition, in assay [2], the Kd stood at 0.75 nM, the koff is 0.00246 s⁻¹ and the kon worked out at 3.31e+06 M⁻¹ s⁻¹. Moreover, in assay [3], the Kd was determined as 22.6 nM. The “IC50, Wieslab Complement Pathway Assay (classical pathway, 1% NHS)” value (from here on “IC50 … (classical pathway, 1% NHS)”) in assay [4] amounted to 1.63 µg/mL. In assay [5], the Kd is 22.6 nM, the koff is 0.00413 s⁻¹ and the kon worked out at 183000 M⁻¹ s⁻¹.

B2: aC1s_088 × 531v23 IgG1-NNAS/dK (bispecific antibody, V domains shown)
VH 1: QVQLVQSGAEVKKPGASVKLSCTASGFNIKDDYIHWVKEAPGQGLEWIGRIDPADGHTKYAPKFQVKVTITADTSTSTAYLELSSLRSEDTAVYYCARYGYGREVFDYWGQGTTVTVSS
VL 1: DIVLTQSPDSLAVSLGERATISCKASQSVDYDGDSYMNWYQKKPGQPPKILIYDASNLESGIPARFSGSGSGTDFTLTISSLEPEDFAIYYCQQSNEDPWTFGGGTKVEIK
VH 2: QVQLVQSGAEVKKPGASVKVSCKASGYTFTRYYLNWVRKAPGQGLEWIGMIDPSVSETHYAQKFQGRATLTVDKSTSTAYMELSSLRSEDTAVYYCSQIRLPYYYAMDSWGQGTTVTVSS
VL 2: DIQMTQSPSSLSASVGDRVTITCRASQDISSFLNWYQEKPGKAPKLLIYYTSRLHSGVPSRFSGSGSGTDYTLTISSLQPEDFATYYCQQGNTLPRTFGGGTKVEIK
notes: IgG1-NNAS Fc, dK, with charge pairing mutations; The starred variable domains are used, as for m5; also called v23 variant
In the case of B2, the “fold higher affinity than the 531v25 and 531v25.v6 variants” value in assay [6] was ~2 fold. Besides, the “IC50, C3d deposition on neurons” value in assay [1] came out at 13.9 µg/mL. In assay [2], the Kd came to 0.66 nM, the koff turned out to be 0.00275 s⁻¹ and the kon was 4.18e+06 M⁻¹ s⁻¹. Besides, the “IC50 … (classical pathway, 1% NHS)” value in assay [4] was found to be 1.67 µg/mL. Moreover, in assay [5], the Kd was determined as 10.3 nM, the koff was found to be 0.00197 s⁻¹ and the kon worked out at 192000 M⁻¹ s⁻¹.

B3: aC1s_088 × 531v25.v6 IgG4-PE/dK (bispecific antibody, V domains shown)
VH 1: QVQLVQSGAEVKKPGASVKLSCTASGFNIKDDYIHWVKEAPGQGLEWIGRIDPADGHTKYAPKFQVKVTITADTSTSTAYLELSSLRSEDTAVYYCARYGYGREVFDYWGQGTTVTVSS
VL 1: DIVLTQSPDSLAVSLGERATISCKASQSVDYDGDSYMNWYQKKPGQPPKILIYDASNLESGIPARFSGSGSGTDFTLTISSLEPEDFAIYYCQQSNEDPWTFGGGTKVEIK
VH 2: QVQLVQSGAEVKKPGASVKVSCKASGYTFTRYYLNWVRKAPGQGLEWIGMIDPSVSETHYAQKFQGRATLTVDKSTSTAYMELSSLRSEDTAVYYCSQIRLPYYYAMDSWGQGTTVTVSS
VL 2: DIQMTQSPSSLSASVGDRVTITCRASQDIESFLNWYQEKPGKAPKLLIYYTSRLQSGVPSRFSGSGSGTDYTLTISSLQPEDFATYYCQQGNTLPRTFGGGTKVEIK
notes: IgG4-PE Fc, dK, with charge pairing mutations; The starred variable domains are used, as for m5; also called aC1s_088-CM × 531v25.v6 IgG4
As to B3, the “IC50, C3d deposition on neurons” value in assay [1] was found to be 7.48 µg/mL. Besides, the Kd in assay [2] came to 0.76 nM; in assay [3], 18.9 nM; in assay [5] it was 18.9 nM. The koff in assay [2] was 0.00273 s⁻¹; in assay [5] it was 0.00304 s⁻¹. The kon in assay [2] was found to be 3.59e+06 M⁻¹ s⁻¹; in assay [5], 161000 M⁻¹ s⁻¹. For the same molecule, the “IC50 … (classical pathway, 1% NHS)” value in assay [4] was 1.79 µg/mL.

B4: aC1s_088 × 531v23 IgG4-PE/dK (bispecific antibody, V domains shown)
VH 1: QVQLVQSGAEVKKPGASVKLSCTASGFNIKDDYIHWVKEAPGQGLEWIGRIDPADGHTKYAPKFQVKVTITADTSTSTAYLELSSLRSEDTAVYYCARYGYGREVFDYWGQGTTVTVSS
VL 1: DIVLTQSPDSLAVSLGERATISCKASQSVDYDGDSYMNWYQKKPGQPPKILIYDASNLESGIPARFSGSGSGTDFTLTISSLEPEDFAIYYCQQSNEDPWTFGGGTKVEIK
VH 2: QVQLVQSGAEVKKPGASVKVSCKASGYTFTRYYLNWVRKAPGQGLEWIGMIDPSVSETHYAQKFQGRATLTVDKSTSTAYMELSSLRSEDTAVYYCSQIRLPYYYAMDSWGQGTTVTVSS
VL 2: DIQMTQSPSSLSASVGDRVTITCRASQDISSFLNWYQEKPGKAPKLLIYYTSRLHSGVPSRFSGSGSGTDYTLTISSLQPEDFATYYCQQGNTLPRTFGGGTKVEIK
notes: IgG4-PE Fc, dK, with charge pairing mutations; The charge-mutated (starred) variable domains are used for both arms; also called aC1s_088-CM × 531v23 IgG4
Take B4: the “fold higher affinity than the 531v25 and 531v25.v6 variants” value in assay [6] is ~2 fold. Further, the “IC50, C3d deposition on neurons” value in assay [1] turned out to be 16.2 µg/mL. The dissociation constant (Kd) was 0.79 nM in assay [2], 9.65 nM in assay [3] and 9.65 nM in assay [5]. For the same molecule, the koff in assay [2] is 0.00245 s⁻¹; in assay [5] it was 0.00183 s⁻¹. The kon in assay [2] was determined as 3.14e+06 M⁻¹ s⁻¹; in assay [5] it was 189000 M⁻¹ s⁻¹. Moreover, in assay [4], the “IC50 … (classical pathway, 1% NHS)” value was 1.67 µg/mL.
